Assay results: paper PMC10940162
Blank lines part the entries; values can stand above or below the molecule they belong to.

Columns and labels:
[1] = target: porcine brain tubulin (microtubules) (porcine)
[2] = target: porcine brain tubulin (microtubules) (porcine); experiment: in vitro reconstitution with TIRF microscopy; microtubules nucleated from and anchored at γ-TuC (GCP3–GFP) held by anti-GFP nanobody; 25 µM tubulin, 80 mM KCl, MRB80, 30 °C; 5 nM SNAP–AF647–CAMSAP3, 5 nM SNAP–AF647–CAMSAP1 or 40 nM mCherry–CAMSAP2; scored over 10 min
[3] = target: γ-tubulin-containing complexes (complete and incomplete γ-TuRC) purified using GCP3–GFP–SII (human (endogenous in HEK293T)) (UniProt Q96CW5); experiment: single-molecule colocalisation by TIRF microscopy; NPF pre-incubated with γ-TuC–GFP or GFP control ('Premix'), then held on the coverslip by biotinylated anti-GFP nanobody; without tubulin
[4] = target: γ-tubulin-containing complexes (complete and incomplete γ-TuRC) purified using GCP3–GFP–SII (human (endogenous in HEK293T)) (UniProt Q96CW5); experiment: single-molecule colocalisation by TIRF microscopy; γ-TuC–GFP held on the coverslip by biotinylated anti-GFP nanobody; with free tubulin (17.5 µM, 50 mM KCl, 30 °C); the sentence does not tell whether the NPF was premixed
[5] = target: γ-tubulin-containing complexes (complete and incomplete γ-TuRC) purified using GCP3–GFP–SII (human (endogenous in HEK293T)) (UniProt Q96CW5)
[6] = target: γ-tubulin-containing complexes (complete and incomplete γ-TuRC) purified using GCP3–GFP–SII (human (endogenous in HEK293T)) (UniProt Q96CW5); experiment: single-molecule colocalisation by TIRF microscopy; NPF pre-incubated with γ-TuC–GFP in solution ('Premix'), then held on the coverslip by biotinylated anti-GFP nanobody; with 17.5 µM tubulin, 50 mM KCl, MRB80, 30 °C
[7] = target: porcine brain tubulin (microtubules) (porcine); experiment: in vitro reconstitution with TIRF microscopy; microtubules nucleated from and anchored at γ-TuC (GCP3–GFP) held by anti-GFP nanobody; 25 µM tubulin, 80 mM KCl, MRB80, 30 °C; 5 nM SNAP–AF647–CAMSAP3, 5 nM SNAP–AF647–CAMSAP1 or 40 nM mCherry–CAMSAP2; scored over 10 min; remark: listed apart in the source
[8] = target: γ-tubulin-containing complexes (complete and incomplete γ-TuRC) purified using GCP3–GFP–SII (human (endogenous in HEK293T)) (UniProt Q96CW5); experiment: single-molecule colocalisation by TIRF microscopy; NPF pre-incubated with γ-TuC–GFP or GFP control ('Premix'), then held on the coverslip by biotinylated anti-GFP nanobody; without tubulin; remark: listed apart in the source
[9] = target: γ-tubulin-containing complexes (complete and incomplete γ-TuRC) purified using GCP3–GFP–SII (human (endogenous in HEK293T)) (UniProt Q96CW5); experiment: single-molecule colocalisation by TIRF microscopy; γ-TuC–GFP held on the coverslip by biotinylated anti-GFP nanobody; with free tubulin (17.5 µM, 50 mM KCl, 30 °C); the sentence does not tell whether the NPF was premixed; remark: listed apart in the source
[10] = target: porcine brain tubulin (microtubules) (porcine); remark: listed apart in the source
[11] = target: porcine brain tubulin (microtubules) (porcine); experiment: in vitro reconstitution with TIRF microscopy; as a7 with 5 nM SNAP–AF647–CAMSAP3 and 200 nM chTOG–mCherry (not premixed)
[12] = target: porcine brain tubulin (microtubules) (porcine); experiment: in vitro reconstitution with TIRF microscopy; as a7 with 5 nM SNAP–AF647–CAMSAP3 and 30 nM mCherry–CLASP2 (pre-incubated with γ-TuC)
[13] = target: porcine brain tubulin (microtubules) (porcine); experiment: in vitro reconstitution with TIRF microscopy; as a7 with 5 nM SNAP–AF647–CAMSAP3 and 30 nM mCherry–CDK5RAP2 (pre-incubated with γ-TuC)

Chain of UniProt Q96CW5 (Q96CW5 whole entry, looked up, one chain of several): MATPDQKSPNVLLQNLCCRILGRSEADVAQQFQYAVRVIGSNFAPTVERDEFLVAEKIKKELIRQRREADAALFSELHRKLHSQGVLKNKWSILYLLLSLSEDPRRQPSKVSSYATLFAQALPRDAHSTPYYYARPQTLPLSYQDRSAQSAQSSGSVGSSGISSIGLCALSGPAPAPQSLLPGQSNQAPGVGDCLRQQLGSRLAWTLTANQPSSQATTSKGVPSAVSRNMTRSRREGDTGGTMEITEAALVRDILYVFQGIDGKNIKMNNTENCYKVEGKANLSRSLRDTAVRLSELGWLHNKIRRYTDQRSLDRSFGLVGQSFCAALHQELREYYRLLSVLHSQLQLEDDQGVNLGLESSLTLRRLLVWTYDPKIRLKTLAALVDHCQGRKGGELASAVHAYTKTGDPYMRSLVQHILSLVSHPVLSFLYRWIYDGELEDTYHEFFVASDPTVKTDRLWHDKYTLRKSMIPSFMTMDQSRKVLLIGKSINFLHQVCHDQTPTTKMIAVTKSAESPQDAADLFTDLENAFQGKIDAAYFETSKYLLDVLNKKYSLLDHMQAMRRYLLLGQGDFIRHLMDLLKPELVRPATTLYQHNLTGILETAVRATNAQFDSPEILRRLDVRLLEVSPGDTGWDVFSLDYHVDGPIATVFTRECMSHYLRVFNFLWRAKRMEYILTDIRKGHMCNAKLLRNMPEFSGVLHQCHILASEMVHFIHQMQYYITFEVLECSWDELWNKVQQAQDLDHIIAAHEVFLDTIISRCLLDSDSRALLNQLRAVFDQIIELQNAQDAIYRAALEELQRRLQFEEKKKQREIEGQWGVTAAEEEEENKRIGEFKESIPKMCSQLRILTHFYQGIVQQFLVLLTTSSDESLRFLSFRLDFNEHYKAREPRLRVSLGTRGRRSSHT

- γ-TuC displacement frequency (microtubules released among γ-TuC-anchored minus ends colocalizing with the CAMSAP) [1]: 5%
- percent of γ-TuC-nucleated microtubules with CAMSAP at the minus end [2]: 25%
Molecule: SNAP–AF647–CAMSAP1 (from UniProt Q5T5Y3 1-1602) (natural protein)

- percent of chTOG-positive puncta colocalizing with γ-TuC [3]: 28%
- percent of chTOG-positive puncta colocalizing with γ-TuC [4]: 6%
Molecule: chTOG–mCherry (from UniProt Q14008 1-2032) (natural protein)

- microtubule nucleation efficiency of γ-TuC (percent of γ-TuCs nucleating within 10 min), mCherry–CDK5RAP2 pre-incubated with γ-TuCs [5]: 35%
- percent of CDK5RAP2-positive puncta colocalizing with γ-TuCs [3]: 41%
- percent of γ-TuCs colocalizing with CDK5RAP2 [3]: 30%
- percent of γ-TuCs colocalizing with CDK5RAP2 [6]: 38%
- percent of CDK5RAP2-positive puncta colocalizing with γ-TuCs [4]: 13%
Molecule: mCherry–CDK5RAP2 (from UniProt Q96SN8 1-1893) (natural protein)

- γ-TuC displacement frequency (microtubules released among γ-TuC-anchored minus ends colocalizing with the CAMSAP) [1]: 90%
- percent of γ-TuC-nucleated microtubules with CAMSAP at the minus end [7]: 15%
B1: mCherry–CAMSAP2 (natural protein)
chain: MGDAADPREMRKTFIVPAIKPFDHYDFSRAKIACNLAWLVAKAFGTENVPEELQEPFYTDQYDQEHIKPPVVNLLLSAELYCRAGSLILKSDAAKPLLGHDAVIQALAQKGLYVTDQEKLVTERDLHKKPIQMSAHLAMIDTLMMAYTVEMVSIEKVIACAQQYSAFFQATDLPYDIEDAVMYWINKVNEHLKDIMEQEQKLKEHHTVEAPGGQKSPSKWFWKLVPARYRKEQTLLKQLPCIPLVENLLKDGTDGCALAALIHFYCPDVVRLEDICLKETMSLADSLYNLQLIQEFCQEYLNQCCHFTLEDMLYAASSIKSNYLVFMAELFWWFEVVKPSFVQPRVVRPQGAEPVKDMPSIPVLNAAKRNVLDSSSDFPSSGEGATFTQSHHHLPSRYSRPQAHSSASGGIRRSSSMSYVDGFIGTWPKEKRSSVHGVSFDISFDKEDSVQRSTPNRGITRSISNEGLTLNNSHVSKHIRKNLSFKPINGEEEAESIEEELNIDSHSDLKSCVPLNTNELNSNENIHYKLPNGALQNRILLDEFGNQIETPSIEEALQIIHDTEKSPHTPQPDQIANGFFLHSQEMSILNSNIKLNQSSPDNVTDTKGALSPITDNTEVDTGIHVPSEDIPETMDEDSSLRDYTVSLDSDMDDASKFLQDYDIRTGNTREALSPCPSTVSTKSQPGSSASSSSGVKMTSFAEQKFRKLNHTDGKSSGSSSQKTTPEGSELNIPHVVAWAQIPEETGLPQGRDTTQLLASEMVHLRMKLEEKRRAIEAQKKKMEAAFTKQRQKMGRTAFLTVVKKKGDGISPLREEAAGAEDEKVYTDRAKEKESQKTDGQRSKSLADIKESMENPQAKWLKSPTTPIDPEKQWNLASPSEETLNEGEILEYTKSIEKLNSSLHFLQQEMQRLSLQQEMLMQMREQQSWVISPPQPSPQKQIRDFKPSKQAGLSSAIAPFSSDSPRPTHPSPQSSNRKSASFSVKSQRTPRPNELKITPLNRTLTPPRSVDSLPRLRRFSPSQVPIQTRSFVCFGDDGEPQLKESKPKEEVKKEELESKGTLEQRGHNPEEKEIKPFESTVSEVLSLPVTETVCLTPNEDQLNQPTEPPPKPVFPPTAPKNVNLIEVSLSDLKPPEKADVPVEKYDGESDKEQFDDDQKVCCGFFFKDDQKAENDMAMKRAALLEKRLRREKETQLRKQQLEAEMEHKKEETRRKTEEERQKKEDERARREFIRQEYMRRKQLKLMEDMDTVIKPRPQVVKQKKQRPKSIHRDHIESPKTPIKGPPVSSLSLASLNTGDNESVHSGKRTPRSESVEGFLSPSRCGSRNGEKDWENASTTSSVASGTEYTGPKLYKEPSAKSNKHIIQNALAHCCLAGKVNEGQKKKILEEMEKSDANNFLILFRDSGCQFRSLYTYCPETEEINKLTGIGPKSITKKMIEGLYKYNSDRKQFSHIPAKTLSASVDAITIHSHLWQTKRPVTPKKLLPTKA

- percent colocalization with γ-TuC [8]: 72%
- percent colocalization with γ-TuC [9]: 72%
B2: mCherry–CLASP2 (natural protein)
chain: MAMGDDKSFDDEESVDGNRPSSAASAFKVPAPKTSGNPANSARKPGSAGGPKVGGASKEGGAGAVDEDDFIKAFTDVPSIQIYSSRELEETLNKIREILSDDKHDWDQRANALKKIRSLLVAGAAQYDCFFQHLRLLDGALKLSAKDLRSQVVREACITVAHLSTVLGNKFDHGAEAIVPTLFNLVPNSAKVMATSGCAAIRFIIRHTHVPRLIPLITSNCTSKSVPVRRRSFEFLDLLLQEWQTHSLERHAAVLVETIKKGIHDADAEARVEARKTYMGLRNHFPGEAETLYNSLEPSYQKSLQTYLKSSGSVASLPQSDRSSSSSQESLNRPFSSKWSTANPSTVAGRVSAGSSKASSLPGSLQRSRSDIDVNAAAGAKAHHAAGQSVRSGRLGAGALNAGSYASLEDTSDKLDGTASEDGRVRAKLSAPLAGMGNAKADSRGRSRTKMVSQSQPGSRSGSPGRVLTTTALSTVSSGVQRVLVNSASAQKRSKIPRSQGCSREASPSRLSVARSSRIPRPSVSQGCSREASRESSRDTSPVRSFQPLASRHHSRSTGALYAPEVYGASGPGYGISQSSRLSSSVSAMRVLNTGSDVEEAVADALKKPARRRYESYGMHSDDDANSDASSACSERSYSSRNGSIPTYMRQTEDVAEVLNRCASSNWSERKEGLLGLQNLLKNQRTLSRVELKRLCEIFTRMFADPHGKRVFSMFLETLVDFIQVHKDDLQDWLFVLLTQLLKKMGADLLGSVQAKVQKALDVTRESFPNDLQFNILMRFTVDQTQTPSLKVKVAILKYIETLAKQMDPGDFINSSETRLAVSRVITWTTEPKSSDVRKAAQSVLISLFELNTPEFTMLLGALPKTFQDGATKLLHNHLRNTGNGTQSSMGSPLTRPTPRSPANWSSPLTSPTNTSQNTLSPSAFDYDTENMNSEDIYSSLRGVTEAIQNFSFRSQEDMNEPLKRDSKKDDGDSMCGGPGMSDPRAGGDATDSSQTALDNKASLLHSMPTHSSPRSRDYNPYNYSDSISPFNKSALKEAMFDDDADQFPDDLSLDHSDLVAELLKELSNHNERVEERKIALYELMKLTQEESFSVWDEHFKTILLLLLETLGDKEPTIRALALKVLREILRHQPARFKNYAELTVMKTLEAHKDPHKEVVRSAEEAASVLATSISPEQCIKVLCPIIQTADYPINLAAIKMQTKVIERVSKETLNLLLPEIMPGLIQGYDNSESSVRKACVFCLVAVHAVIGDELKPHLSQLTGSKMKLLNLYIKRAQTGSGGADPTTDVSGQS

- percentage of microtubules released from γ-TuCs with SNAP–AF647–CAMSAP3 [10]: 15%
- γ-TuC displacement frequency (microtubules released among γ-TuC-anchored minus ends colocalizing with the CAMSAP) [1]: 40%
- percent of γ-TuC-nucleated microtubules with CAMSAP at the minus end [11]: 25%
- percent of γ-TuC-nucleated microtubules with CAMSAP at the minus end [12]: 35%
- percent of γ-TuC-nucleated microtubules with CAMSAP at the minus end [13]: 3%
- percent of γ-TuC-nucleated microtubules with CAMSAP at the minus end [7]: 30%
B3: SNAP–AF647–CAMSAP3 (natural protein)
chain: MVEAAPAGSGPLRRTFLVPEIKSLDQYDFSRAKAAASLAWVLRAAFGGAEHVPPELWEPFYTDQYAQEHVKPPVTRLLLSAELYCRAWRQALPQLEPSPSPSALLALLARRGTVPSLPEHPVREADLKHQPILMGAHLAVIDALMVAFSFEWTKTLPGPLALSSLEHKLLFWVDTTVRRLQEKTEQEAAQRASPAAPLDGASPAQPSIRYRKDRAIARRAPCFPNVTTLQDLASGAALAATIHCYCPQLLRLEEVCLKDPMSVADSLYNLQLVQDFCASHLPRGCPLSLEDLLYVPPPLKVNLVVLLAEMYMCFEVLKPDFVQAKDLPDGHAVSPRNTETVPSQNNSGSSSPVFNFRHPLLSPGGPQSPLRGSTGSLKSSPSMSHMEALGKAWNRQLSRPLSQAVSFSTPFGLDSDVDVVMGDPVLLRSVSSDSLGPPRPVSTSSRNSAQPAPESGDLPTIEEALQIIHSAEPRLLPDGAADGSFYLHSPEGLSKPPLSPYPPEGASKPLSDRLNKAPIYISHPENPSKSSPCSTGEILKPPPPSEGSPKAVASSPAANNSEVKMTSFAERKKQLVKAEAESGLGSPTSTPVAPEALSSEMSELGARLEEKRRAIEAQKRRIEAIFAKHRQRLGKSAFLQVQPREAAGEAEEEAELGSVPGGERPAGEGQGEPSLRHKSVTFSPDLGPVPPEGLGDYNRAVSKLSAALSSLQRDMQRLTDQQQRLLAPPEAPGPAPPPAAWVIPGPATGPKAASPSPARRAPAARRSPGPGPSPTPRSPKHARPAELKLAPLTRVLTPPHDVDSLPHLRKFSPSQVPVQTRSSILLSEGTPPEEPTTKPALIEIPLASLGEPAADEEGDGSPPGAEDSLEEEASSEGEPRSGLGFFYKDEDKPEDEMAQKRASLLERQQRRVEEARRRKQWQEAEKEQKREEAARLAQEAPGLAFTTPVVASAAPVATLAPTTRAMAPAEEEVGPRRGDFTRLEYERRAQLKLMDDLDKVLRPRASGTGGPGRGGRRATRPRSGCCDDSALARSPARGLLGSRLSKVYSQSTLSLSTVANEAPNNLGVKRPTSRAPSPSGLMSPSRLPGSRERDWENGSNASSPASVPEYTGPRLYKEPSAKSNKFIIHNALSHCCLAGKVNEPQKNRILEEIEKSKANHFLILFRDSSCQFRALYTLSGETEELSRLAGYGPRTVTPAMVEGIYKYNSDRKRFTQIPAKTMSMSVDAFTIQGHLWQSKKPTTPKKGGGTPK
modifications: Alexa Fluor 647 dye on the SNAP tag
